Experimental findings from patent US20220195015A1 are described below.

The assay addresses SARS-CoV-2 spike (S) protein on pseudotyped HIV-1 reporter virus (SARS-CoV-2) (UniProt P0DTC2). Put plainly: cell-based or functional assay.

Sequence of C144 (antibody) (VH): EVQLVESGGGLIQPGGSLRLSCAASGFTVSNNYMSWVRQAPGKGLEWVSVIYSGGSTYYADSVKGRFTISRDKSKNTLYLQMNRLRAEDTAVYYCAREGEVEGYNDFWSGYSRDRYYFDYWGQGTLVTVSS
Sequence of C144 (antibody) (VL): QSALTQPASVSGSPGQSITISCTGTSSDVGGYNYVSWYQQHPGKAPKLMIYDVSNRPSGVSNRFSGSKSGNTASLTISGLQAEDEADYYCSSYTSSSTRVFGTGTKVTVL

One may read the IC50 as the concentration that gives 50% inhibition. A high value points to weaker potency. As a reminder, the IC90 is the concentration at which the effect reaches the 90% level. Lower therefore signals greater potency. C144 (antibody) displayed a concentration for half-maximal inhibition (IC50) of 0.00286 µg/mL and an IC90 of 0.0405 µg/mL.
